From patent US11473073B2, “Aminopeptidases for protein hydrolyzates” (DUPONT NUTRITION BIOSCIENCES APS, priority 2015, dated 2022)

Key:
Type in all cases: biochemical
[1] = target: T1, Aspergillus clavatus NRRL 1 PepN 2 (aminopeptidase type 2) TRI035, SEQ ID NO: 5 (mature SEQ ID NO: 22) (Aspergillus clavatus, UniProt A1CCU6); assay: Activity on Glu-pNA and Gln-pNA substrates; settings: 20 mM CPB-Buffer pH 9.0, 45° C., 405 nm
T1 construct: MEROPS M28.008
Description: (§1) H-Glu-Nitroanilid (pNA) and H-Gln-Nitroanilid (pNA) were used as substrates and the release of p-Nitroanilid (pNA) was measured by absorbance at 405 nm. As buffer 20 mM CPB-Buffer (20 mM Citric acid, 20 mM Na-phosphate, 20 mM Boric acid) pH 9.0 was used. 10 mg H-Glu-pNA and H-Gln-pNA (from BACHEM or Schafer N; Copenhagen, Denmark) were dissolved in 1 ml of DMSO (Dimethyl Sulphoxide from SIGMA; cat # D2650).
(§2) For running the assay 80 μL buffer, 10 μL H-Glu-pNA or H-Gln-pNA substrate and 10 uL appropriately diluted PepN 2 was incubated in Costar assay plate 9017 (Corning Inc.) at 45° C. and measured at 405 nm every 30 sec for 30 min in a VERSAMAX® microplate reader (Molecular Devices) running with SoftMaxPro 5.4.1 software. Activity was determined as the maximal slope of the linear part of the curve determined over 10 time points.

[2] = target: T2, Neosartorya fischeri NRRL 181 PepN 2 (aminopeptidase type 2) TRI031, SEQ ID NO: 1 (mature SEQ ID NO: 18) (Aspergillus fischeri, UniProt A1DJ89); assay: Activity on Glu-pNA and Gln-pNA substrates; settings: 20 mM CPB-Buffer pH 9.0, 45° C., 405 nm
T2 construct: MEROPS M28.008
Description: as §1, §2

[3] = target: T3, PepN 1 L. helveticus (Lactobacillus helveticus ATCC 12046), purified (Lactobacillus helveticus, UniProt Q10730); assay: Activity on Glu-pNA and Gln-pNA substrates; settings: 20 mM CPB-Buffer pH 9.0, 45° C., 405 nm
T3 construct: made in house
T3 sequence (Q10730 1-844): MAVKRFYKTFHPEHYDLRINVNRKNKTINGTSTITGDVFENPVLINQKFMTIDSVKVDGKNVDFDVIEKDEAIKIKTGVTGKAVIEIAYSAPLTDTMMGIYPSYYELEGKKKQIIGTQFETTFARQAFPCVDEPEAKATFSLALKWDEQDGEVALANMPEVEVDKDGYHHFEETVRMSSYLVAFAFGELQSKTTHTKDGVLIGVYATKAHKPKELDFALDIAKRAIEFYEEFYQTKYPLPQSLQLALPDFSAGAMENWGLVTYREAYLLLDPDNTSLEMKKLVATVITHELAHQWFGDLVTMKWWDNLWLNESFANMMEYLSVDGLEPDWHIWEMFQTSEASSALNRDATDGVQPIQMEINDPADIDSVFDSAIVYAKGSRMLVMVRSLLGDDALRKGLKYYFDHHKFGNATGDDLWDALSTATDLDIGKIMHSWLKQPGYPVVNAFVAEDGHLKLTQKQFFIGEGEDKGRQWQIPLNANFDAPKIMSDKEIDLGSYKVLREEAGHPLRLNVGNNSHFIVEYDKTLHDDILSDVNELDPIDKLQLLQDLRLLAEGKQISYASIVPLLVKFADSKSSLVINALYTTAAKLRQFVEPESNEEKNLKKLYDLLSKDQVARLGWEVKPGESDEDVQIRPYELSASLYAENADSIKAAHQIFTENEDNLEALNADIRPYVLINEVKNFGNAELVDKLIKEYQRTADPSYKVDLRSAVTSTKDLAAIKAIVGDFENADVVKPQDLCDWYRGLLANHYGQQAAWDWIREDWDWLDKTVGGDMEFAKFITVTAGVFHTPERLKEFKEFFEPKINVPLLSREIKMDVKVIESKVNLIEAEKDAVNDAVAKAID

[4] = system: PepN 1 A. sojae (COROLASE LAP), non-purified; assay: Activity on Glu-pNA and Gln-pNA substrates; settings: 20 mM CPB-Buffer pH 9.0, 45° C., 405 nm
[5] = system: peptide TPAAAR (peptide library XPAAAR); assay: Hydrolysis of peptide with proline in position 2, LC-MS; settings: within 12 hr; peptide library 1 mg/mL, aminopeptidase 1 ug/mL, 55° C.; FIG. 10
Description: The peptide library XPAAAR (1 mg/mL) (SEQ ID NO:133) was incubated with 1 ug/mL of the aminopeptidase in 3×20 mM CPB-Buffer (20 mM Citric acid, 20 mM Phosphate, 20 mM Boric acid) at 55° C. 50 μL aliquots were stopped with 50 ul 5% TFA at the indicated time points and subjected to LC-MS analysis.
Capillary LC-MS/MS analyses were performed using an Agilent 1100 LC system (Agilent Technologies) interfaced to a LTQ Orbitrap Classic hybrid mass spectrometer (Thermo Scientific, Bremen, Germany). Samples were loaded onto a 15 cm Phenomenex Jupiter 4μ Proteo 90A, C4 analytical column. Separation was performed at a flow rate of 16 μL/min using a 10 min gradient of 0-40% Solvent B H2O/CH3CN/HCOOH (50/950/0.65 v/v/v) into the IONMAX® ion source (Thermo Scientific, San Jose). […] The peptide masses were measured by the Orbitrap (MS scans were obtained with a resolution of 60 000 at m/z 400), and up to 2 of the most intense peptide m/z were selected and subjected to fragmentation using CID in the linear ion trap (LTQ). […]
Label free quantification: The RAW files were accessed with the program Skyline 2.6.0.7176 (MacLean, B., et al., supra) which uses the MS1 intensities to build chromatograms (Schilling, B., et al., supra). […] Peptide sequences of the substrate as well as cleavage products were typed into Skyline and intensities were calculated in each sample. […]

[6] = system: whey protein isolate (WPI); assay: Degree of hydrolysis of WPI with endopeptidases plus PepN; settings: 50° C., 18 hr
Description: Enzyme activities of PepN 1 Lactobacillus helveticus ATCC® 12046, PepN 1 Aspergillus oryzae and from PepN 2 from Aspergillus clavatus (TRI035) were determined according to Stressler, Eisele et al. (2013, infra). PepN 1 from L. helveticus was expressed and purified as described by Stressler, Eisele et al. (2013, infra).
The PepN 1 and 2 aminopeptidases were standardized to the activity range of 2.5-200 nkat*mL^−1. For protein hydrolyses, 1% (w/wWPI) FOODPRO® Alkaline Protease (DuPont, Brabrand, Denmark) and 1% (w/wWPI) FOODPRO® PNL (DuPont, Brabrand, Denmark) were added to the whey protein isolate suspension (WPI; LACPRODAN® 9224, Arla Ingredients, Viby, Denmark) with an initial pH of 7.0. Following the endopeptidases addition, the WPI was mixed and 200 μL were transferred to each well of a 96-well microtiter plate. The hydrolysis was conducted at 50° C. without pH control and terminated after 18 hr by addition of 20 μL of 2 M TCA. Prior to the determination of the DH (Nielsen, Petersen et al., 2001, infra), all samples were filtered 0.22 μm.

T1 sequence (A1CCU6 entry or part of it): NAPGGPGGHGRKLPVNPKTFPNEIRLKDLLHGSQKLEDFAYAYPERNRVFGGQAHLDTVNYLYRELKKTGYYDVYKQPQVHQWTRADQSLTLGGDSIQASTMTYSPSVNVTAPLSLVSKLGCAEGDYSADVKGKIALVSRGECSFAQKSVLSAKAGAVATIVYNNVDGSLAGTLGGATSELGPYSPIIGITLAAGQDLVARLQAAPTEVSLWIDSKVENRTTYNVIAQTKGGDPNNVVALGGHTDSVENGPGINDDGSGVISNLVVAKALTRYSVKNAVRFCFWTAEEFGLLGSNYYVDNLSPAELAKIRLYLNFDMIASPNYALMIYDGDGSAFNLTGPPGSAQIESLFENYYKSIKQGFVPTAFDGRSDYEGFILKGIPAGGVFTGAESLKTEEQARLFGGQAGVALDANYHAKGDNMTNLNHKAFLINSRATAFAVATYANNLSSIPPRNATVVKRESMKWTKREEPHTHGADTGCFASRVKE
T2 sequence (A1DJ89 entry or part of it): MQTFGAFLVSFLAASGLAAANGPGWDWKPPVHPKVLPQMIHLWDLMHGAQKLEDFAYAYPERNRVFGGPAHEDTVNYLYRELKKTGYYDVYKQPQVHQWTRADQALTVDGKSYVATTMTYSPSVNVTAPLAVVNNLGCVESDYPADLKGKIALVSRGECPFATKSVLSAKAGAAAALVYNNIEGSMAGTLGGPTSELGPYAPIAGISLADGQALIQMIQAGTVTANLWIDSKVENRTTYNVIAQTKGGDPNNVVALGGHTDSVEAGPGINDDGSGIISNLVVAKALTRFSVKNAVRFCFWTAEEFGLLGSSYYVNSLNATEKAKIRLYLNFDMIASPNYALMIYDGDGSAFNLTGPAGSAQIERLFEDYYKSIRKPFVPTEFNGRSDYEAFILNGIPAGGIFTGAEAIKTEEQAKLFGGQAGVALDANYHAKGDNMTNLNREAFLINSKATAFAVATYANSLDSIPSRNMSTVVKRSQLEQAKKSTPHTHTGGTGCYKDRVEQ

NC(=O)CC[C@H](N)C(=O)Nc1ccc([N+](=O)[O-])cc1 [Gln-pNA, H-Gln-Nitroanilid]
Vmax (Gln-pNA) [1]: 98.7 mU/min
Vmax (Gln-pNA) [2]: 75.9 mU/min
Vmax (Gln-pNA) [3]: 0 mU/min
Vmax (Gln-pNA) [4]: 0 mU/min

N[C@@H](CCC(=O)O)C(=O)Nc1ccc([N+](=O)[O-])cc1 [Glu-pNA, H-Glu-Nitroanilid]
Vmax (Glu-pNA) [1]: 20.1 mU/min
Vmax (Glu-pNA) [2]: 50.8 mU/min
Vmax (Glu-pNA) [3]: 0.02 mU/min
Vmax (Glu-pNA) [4]: 0 mU/min

B1: TRI063 (A. oryzae): leucine aminopeptidase 2 from Aspergillus oryzae RIB40 (NCBI Reference Sequence: XP_001819545.1) (protein, listed as Aspergillus oryzae)
chain: MRSLLWASLLSGVLAGRALVSPDEFPEDIQLEDLLEGSQQLEDFAYAYPERNRVFGGKAHDDTVNYLYEELKKTGYYDVYKQPQVHLWSNADQTLKVGDEEIEAKTMTYSPSVEVTADVAVVKNLGCSEADYPSDVEGKVALIKRGECPFGDKSVLAAKAKAAASIVYNNVAGSMAGTLGAAQSDKGPYSAIVGISLEDGQKLIKLAEAGSVSVDLWVDSKQENRTTYNVVAQTKGGDPNNVVALGGHTDSVEAGPGINDDGSGIISNLVIAKALTQYSVKNAVRFLFWTAEEFGLLGSNYYVSHLNATELNKIRLYLNFDMIASPNYALMIYDGDGSAFNQSGPAGSAQIEKLFEDYYDSIDLPHIPTQFDGRSDYEAFILNGIPSGGLFTGAEGIMSEENASRWGGQAGVAYDANYHAAGDNMTNLNHEAFLINSKATAFAVATYANDLSSIPKRNTTSSLHRRARTMRPFGKRAPKTHAHVSGSGCWHSQVEA
hydrolysis of TPAAAR [5]: no hydrolysis

B2: PepN 1: L. helveticus: PepN 1 from Lactobacillus helveticus ATCC 12046, expressed and purified as described by Stressler, Eisele et al. (2013) (protein, UniProt Q10730 1-844, looked up)
Aminopeptidase N: MAVKRFYKTFHPEHYDLRINVNRKNKTINGTSTITGDVFENPVLINQKFMTIDSVKVDGKNVDFDVIEKDEAIKIKTGVTGKAVIEIAYSAPLTDTMMGIYPSYYELEGKKKQIIGTQFETTFARQAFPCVDEPEAKATFSLALKWDEQDGEVALANMPEVEVDKDGYHHFEETVRMSSYLVAFAFGELQSKTTHTKDGVLIGVYATKAHKPKELDFALDIAKRAIEFYEEFYQTKYPLPQSLQLALPDFSAGAMENWGLVTYREAYLLLDPDNTSLEMKKLVATVITHELAHQWFGDLVTMKWWDNLWLNESFANMMEYLSVDGLEPDWHIWEMFQTSEASSALNRDATDGVQPIQMEINDPADIDSVFDSAIVYAKGSRMLVMVRSLLGDDALRKGLKYYFDHHKFGNATGDDLWDALSTATDLDIGKIMHSWLKQPGYPVVNAFVAEDGHLKLTQKQFFIGEGEDKGRQWQIPLNANFDAPKIMSDKEIDLGSYKVLREEAGHPLRLNVGNNSHFIVEYDKTLHDDILSDVNELDPIDKLQLLQDLRLLAEGKQISYASIVPLLVKFADSKSSLVINALYTTAAKLRQFVEPESNEEKNLKKLYDLLSKDQVARLGWEVKPGESDEDVQIRPYELSASLYAENADSIKAAHQIFTENEDNLEALNADIRPYVLINEVKNFGNAELVDKLIKEYQRTADPSYKVDLRSAVTSTKDLAAIKAIVGDFENADVVKPQDLCDWYRGLLANHYGQQAAWDWIREDWDWLDKTVGGDMEFAKFITVTAGVFHTPERLKEFKEFFEPKINVPLLSREIKMDVKVIESKVNLIEAEKDAVNDAVAKAID
Degree of hydrolysis ([6]; PepN dosage 2.5 nkat/mL in stock solution): 18%
Degree of hydrolysis ([6]; PepN dosage 5 nkat/mL in stock solution): 18%
Degree of hydrolysis ([6]; PepN dosage 10 nkat/mL in stock solution): 20%
Degree of hydrolysis ([6]; PepN dosage 25 nkat/mL in stock solution): 23%
Degree of hydrolysis ([6]; PepN dosage 50 nkat/mL in stock solution): 23%
Degree of hydrolysis ([6]; PepN dosage 75 nkat/mL in stock solution): 24%
Degree of hydrolysis ([6]; PepN dosage 100 nkat/mL in stock solution): 28%
Degree of hydrolysis ([6]; PepN dosage 200 nkat/mL in stock solution): 27%
